Target: CC-chemokine receptor type 7 (CCR7) (UniProt P32248)
Test: cell-based or functional assay

UniProt P32248, sequence (P32248 25-378 limits assumed): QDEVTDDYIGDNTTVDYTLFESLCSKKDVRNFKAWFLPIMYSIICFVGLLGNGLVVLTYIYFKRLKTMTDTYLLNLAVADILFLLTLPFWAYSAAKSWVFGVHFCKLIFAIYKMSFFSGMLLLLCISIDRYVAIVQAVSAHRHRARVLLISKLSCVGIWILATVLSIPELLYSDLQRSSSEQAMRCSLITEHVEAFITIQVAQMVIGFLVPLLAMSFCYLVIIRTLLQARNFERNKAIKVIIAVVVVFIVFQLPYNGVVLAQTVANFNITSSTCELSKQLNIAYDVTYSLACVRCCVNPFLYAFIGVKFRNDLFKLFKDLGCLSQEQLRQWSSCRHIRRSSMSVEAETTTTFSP

commercial CCL21 antigen (from UniProt O00585 24-134) (ligand)
Cells in the well of absorbent material (chemotaxis of PBMCs, agarose assay): 170 cells
Chemotaxis percentage (PBMCs, agarose assay): 90%
Chemotaxis rate (PBMCs, agarose assay): 153 cells
cancer cell migration after 72 hours, wound healing assay: 90%
survival of MCF7 cancer cells, MTT assay, 7.5 µg/ml: 33%

Reference: patent publication US20230322879A1
